Measured values from patent US7960349B2 (Bristol-Myers Squibb Company, priority 2006, dated 2011).
Each block holds one molecule with its values, some of them ahead of it. *1 amine or outer side, *2 acyl side, *3 side chain or, on linkers, in order; H or OH if unused. Primed or numbered codes have the meaning given here. Where no end group is shown, it is not given here. [ ]: non-standard residue; d: D form. The star is where a group is joined. X1 = 4‑(2′-methylphenyl)‑3‑pyridylalanine, Cc1ccccc1-c1ccncc1C[C@H](N[*:1])C(=O)[*:2]; Bip(2′-Et-4′-OH-5′-I) = CCc1cc(O[*:3])c(I)cc1-c1ccc(C[C@H](N[*:1])C(=O)[*:2])cc1; Phe(4-(2-Et-4-HO-Ph)) = CCc1cc(O)ccc1-c1ccc(C[C@H](N)C(=O)O)cc1; IMeOp = 3-(1H-imidazol-4-yl)-2-methoxypropanoyl; αMePhe(2-F) = C[C@](N)(Cc1ccccc1F)C(=O)O; αMeP = C[C@@]1(C(=O)O)CCCN1; Moc = COC(=O)*

Legend:
Human GLP-1 Receptor = target: T1, Human GLP-1 Receptor (Homo sapiens, UniProt P43220); experiment: Cyclic AMP determination in CHO cells expressing human GLP-1 receptor; type: cell-based; conditions: for Emax: CHO, percent of maximal GLP-1 stimulated activity; for Emax / Mean Hill: human GLP-1 receptor
T1 construct: Full-length human glucagon-like peptide 1 receptor was stably expressed in CHO-K1 cells; expressed in transfected cells; host or cells: CHO-K1 (clone CHO-GLP1R-19)
T1 sequence (P43220 24-463): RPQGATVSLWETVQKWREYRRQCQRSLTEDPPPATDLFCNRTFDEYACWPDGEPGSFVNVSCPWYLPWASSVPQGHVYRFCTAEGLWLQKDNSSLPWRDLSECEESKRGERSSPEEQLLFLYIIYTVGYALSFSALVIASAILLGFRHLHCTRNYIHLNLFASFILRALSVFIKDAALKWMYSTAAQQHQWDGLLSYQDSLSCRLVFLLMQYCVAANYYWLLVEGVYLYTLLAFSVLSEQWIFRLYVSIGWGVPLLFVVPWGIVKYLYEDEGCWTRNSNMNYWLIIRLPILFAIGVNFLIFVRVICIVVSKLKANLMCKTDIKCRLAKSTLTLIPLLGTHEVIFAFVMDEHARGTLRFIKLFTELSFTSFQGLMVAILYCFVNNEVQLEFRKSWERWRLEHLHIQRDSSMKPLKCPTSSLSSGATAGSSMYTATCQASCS
Description: (§1) CHO-GLP-1R-19 cells (20,000 in 100 μl of media) were plated into each well of a 96-well tissue culture microtiter plate and incubated overnight in a 5% CO2 atmosphere at 37° C. On the day of the assay, cells were washed once with 100 μl of phosphate-buffered saline (PBS). A Biomek 2000 was used to serially dilute all peptides prior to beginning the assay. Serial dilutions were carried out in 100% DMSO.
(§2) 50 μl of each cAMP standard was added by hand and 70 μl of mix reagent (Amersham cAMP SPA kit) was added using the multidrop. […] This standard curve was used to convert CPM to pmol of cAMP.
(§3) Cell plates and peptide plates were loaded onto the Platemate. The media was aspirated from the wells and discarded. 100 uL per well of the peptide/buffer mixture were then added from the peptide plates to initiate the assay. After 30 min. of incubation the peptide/buffer was removed and 50 uL of the lysis reagent 1 solution was added per well. The plate was kept for one hour at RT or overnight if refrigerated and sealed.
(§4) Dose dependence for Compounds was determined at half-log concentrations in duplicate. […] A standard curve was determined using known amounts of cyclic AMP. […] The data were analyzed by nonlinear regression curve fitting (4 parameter sigmoidal dose-response curve) to determine the EC50 of the compounds.

Mouse GLP-1 Receptor [1] = target: T2, Mouse GLP-1 Receptor (Mus musculus, UniProt O35659); experiment: Stimulation of cAMP synthesis in CHO cells expressing mouse GLP-1 receptor; type: cell-based; conditions: for Emax: CHO, percent of maximal GLP-1 stimulated activity
T2 construct: expressed in transfected cells; host or cells: CHO cells
T2 sequence (O35659 22-463): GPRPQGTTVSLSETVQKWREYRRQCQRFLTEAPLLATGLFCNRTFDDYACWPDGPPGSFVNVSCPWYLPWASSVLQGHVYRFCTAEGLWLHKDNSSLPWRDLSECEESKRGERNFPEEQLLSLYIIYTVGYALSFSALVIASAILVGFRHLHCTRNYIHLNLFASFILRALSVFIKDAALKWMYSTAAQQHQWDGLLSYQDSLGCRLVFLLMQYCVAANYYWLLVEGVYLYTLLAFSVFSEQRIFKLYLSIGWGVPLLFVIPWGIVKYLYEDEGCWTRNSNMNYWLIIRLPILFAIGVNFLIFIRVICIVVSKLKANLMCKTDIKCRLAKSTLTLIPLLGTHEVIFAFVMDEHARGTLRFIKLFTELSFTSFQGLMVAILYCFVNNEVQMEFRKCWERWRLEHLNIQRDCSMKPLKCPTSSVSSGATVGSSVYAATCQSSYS
Description: as §1, §2, §3, §4

[2] = target: Full-length human glucagon-like peptide 1 receptor (human, UniProt P43220 24-463); experiment: cell-based or functional assay
Mouse GLP-1 Receptor [3] = target: T3, Mouse GLP-1 Receptor (mouse, UniProt O35659 22-463); experiment: cell-based or functional assay
T3 sequence (looked up): T2 sequence (O35659 22-463)

B1: Compound of SEQ ID NO: 173 (or 174)* (peptide)
peptide: [IMeOp][αMeP]EGT[αMePhe(2-F)]TSD[Phe(4-(2-Et-4-HO-Ph))][X1]-NH2
modifications: also: IMeOp configuration (R or S) not determined
Mean EC50 (nM), stimulation of cAMP synthesis in CHO cells [2]: 0.018 nM
Mean Emax (%), stimulation of cAMP synthesis in CHO cells [2]: 95.6%
Mean EC50 (nM), stimulation of cAMP synthesis in CHO cells (Mouse GLP-1 Receptor [3]): 0.114 nM
Mean Emax (%), stimulation of cAMP synthesis in CHO cells (Mouse GLP-1 Receptor [3]): 99.7%

B2: Compound of SEQ ID NO: 164 (peptide)
peptide: Moc-H[αMeP]EGT[αMePhe(2-F)]TSD[Bip(2′-Et-4′-OH-5′-I)][X1]-NH2
Mean EC50 (nM), stimulation of cAMP synthesis in CHO cells [2]: 0.01 nM
Mean Emax (%), stimulation of cAMP synthesis in CHO cells [2]: 97.2%
Mean EC50 (nM), stimulation of cAMP synthesis in CHO cells (Mouse GLP-1 Receptor [3]): 0.055 nM
Mean Emax (%), stimulation of cAMP synthesis in CHO cells (Mouse GLP-1 Receptor [3]): 103%

B4: Compound of SEQ ID NO: 175 (or 176)* (peptide)
peptide: [IMeOp][αMeP]EGT[αMePhe(2-F)]THD[Phe(4-(2-Et-4-HO-Ph))][X1]-NH2
modifications: also: IMeOp configuration (R or S) not determined
Mean EC50 (nM), stimulation of cAMP synthesis in CHO cells [2]: 0.03 nM
Mean Emax (%), stimulation of cAMP synthesis in CHO cells [2]: 105%
Mean EC50 (nM), stimulation of cAMP synthesis in CHO cells (Mouse GLP-1 Receptor [3]): 0.084 nM
Mean Emax (%), stimulation of cAMP synthesis in CHO cells (Mouse GLP-1 Receptor [3]): 100%

B5: Compound of SEQ ID NO: 158 (peptide)
peptide: Moc-H[αMeP]EGT[αMePhe(2-F)]TSD[Phe(4-(2-Et-4-HO-Ph))][X1]-NH2
Mean EC50 (nM), stimulation of cAMP synthesis in CHO cells [2]: 0.018 nM
Mean Emax (%), stimulation of cAMP synthesis in CHO cells [2]: 101%
Mean EC50 (nM), stimulation of cAMP synthesis in CHO cells (Mouse GLP-1 Receptor [3]): 0.191 nM
Mean Emax (%), stimulation of cAMP synthesis in CHO cells (Mouse GLP-1 Receptor [3]): 101%

B6: Compound of SEQ ID NO: 174 (or 173)* (peptide)
peptide: [IMeOp][αMeP]EGT[αMePhe(2-F)]TSD[Phe(4-(2-Et-4-HO-Ph))][X1]-NH2
modifications: also: IMeOp configuration (S or R) not determined
Mean EC50 (nM), stimulation of cAMP synthesis in CHO cells [2]: 0.024 nM
Mean Emax (%), stimulation of cAMP synthesis in CHO cells [2]: 104%
Mean EC50 (nM), stimulation of cAMP synthesis in CHO cells (Mouse GLP-1 Receptor [3]): 0.273 nM
Mean Emax (%), stimulation of cAMP synthesis in CHO cells (Mouse GLP-1 Receptor [3]): 105%

Continued, values first:

Emax (Human GLP-1 Receptor): 95.6%
Mean Hill (Human GLP-1 Receptor): 2.6
Mean Hill (Mouse GLP-1 Receptor [1]): 1.4
Emax (Mouse GLP-1 Receptor [1]): 99.7%
Molecule: CCc1cc(O)ccc1-c1ccc(C[C@H](NC(=O)[C@H](CC(=O)O)NC(=O)[C@H](CO)NC(=O)[C@@H](NC(=O)[C@](C)(Cc2ccccc2F)NC(=O)[C@@H](NC(=O)CNC(=O)[C@H](CCC(=O)O)NC(=O)[C@]2(C)CCCN2C(=O)C(Cc2c[nH]cn2)OC)[C@@H](C)O)[C@@H](C)O)C(=O)N[C@@H](Cc2ccc(-c3ccccc3C)nc2)C(N)=O)cc1 (single isomer, unassigned) [SEQ ID NO: 173]

Mean Hill (Human GLP-1 Receptor): 2.7
Mean Hill (Mouse GLP-1 Receptor [1]): 2.1
Molecule: CCc1cc(O)ccc1-c1ccc(C[C@H](NC(=O)[C@H](CC(=O)O)NC(=O)[C@H](CO)NC(=O)[C@@H](NC(=O)[C@](C)(Cc2ccccc2F)NC(=O)[C@@H](NC(=O)CNC(=O)[C@H](CCC(=O)O)NC(=O)[C@]2(C)CCCN2C(=O)C(Cc2c[nH]cn2)OC)[C@@H](C)O)[C@@H](C)O)C(=O)N[C@@H](Cc2ccc(-c3ccccc3C)nc2)C(N)=O)cc1 (single isomer, unassigned) [SEQ ID NO: 174]

Emax (Human GLP-1 Receptor): 105%
Mean Hill (Human GLP-1 Receptor): 2.8
Mean Hill (Mouse GLP-1 Receptor [1]): 2.7
Emax (Mouse GLP-1 Receptor [1]): 100%
Molecule: CCc1cc(O)ccc1-c1ccc(C[C@H](NC(=O)[C@H](CC(=O)O)NC(=O)[C@H](Cc2c[nH]cn2)NC(=O)[C@@H](NC(=O)[C@](C)(Cc2ccccc2F)NC(=O)[C@@H](NC(=O)CNC(=O)[C@H](CCC(=O)O)NC(=O)[C@]2(C)CCCN2C(=O)C(Cc2c[nH]cn2)OC)[C@@H](C)O)[C@@H](C)O)C(=O)N[C@@H](Cc2ccc(-c3ccccc3C)nc2)C(N)=O)cc1 (single isomer, unassigned) [SEQ ID NO: 175]

Mean Hill (Human GLP-1 Receptor): 3.1
Mean Hill (Mouse GLP-1 Receptor [1]): 1.9
Molecule: CCc1cc(O)ccc1-c1ccc(C[C@H](NC(=O)[C@H](CC(=O)O)NC(=O)[C@H](Cc2c[nH]cn2)NC(=O)[C@@H](NC(=O)[C@](C)(Cc2ccccc2F)NC(=O)[C@@H](NC(=O)CNC(=O)[C@H](CCC(=O)O)NC(=O)[C@]2(C)CCCN2C(=O)C(Cc2c[nH]cn2)OC)[C@@H](C)O)[C@@H](C)O)C(=O)N[C@@H](Cc2ccc(-c3ccccc3C)nc2)C(N)=O)cc1 (single isomer, unassigned) [SEQ ID NO: 176]

EC50 (Human GLP-1 Receptor): 0.01 nM
Emax (Human GLP-1 Receptor): 97.2%
Mean Hill (Human GLP-1 Receptor): 1.5
Mean Hill (Mouse GLP-1 Receptor [1]): 2.7
Emax (Mouse GLP-1 Receptor [1]): 103%
Molecule: CCc1cc(O)c(I)cc1-c1ccc(C[C@H](NC(=O)[C@H](CC(=O)O)NC(=O)[C@H](CO)NC(=O)[C@@H](NC(=O)C(C)(Cc2ccccc2F)NC(=O)[C@@H](NC(=O)CNC(=O)[C@H](CCC(=O)O)NC(=O)C2(C)CCCN2C(=O)[C@H](Cc2c[nH]cn2)NC(=O)OC)[C@@H](C)O)[C@@H](C)O)C(=O)N[C@@H](Cc2ccc(-c3ccccc3C)nc2)C(N)=O)cc1 (some centres unmarked) [SEQ ID NO: 164]

Mean EC50 (nM), stimulation of cAMP synthesis in CHO cells [2]: 0.03 nM
Mean Emax (%), stimulation of cAMP synthesis in CHO cells [2]: 95.8%
Mean EC50 (nM), stimulation of cAMP synthesis in CHO cells (Mouse GLP-1 Receptor [3]): 0.126 nM
Mean Emax (%), stimulation of cAMP synthesis in CHO cells (Mouse GLP-1 Receptor [3]): 105%
B3: Compound of SEQ ID NO: 176 (or 175)* (peptide)
peptide: [IMeOp][αMeP]EGT[αMePhe(2-F)]THD[Phe(4-(2-Et-4-HO-Ph))][X1]-NH2
modifications: also: IMeOp configuration (S or R) not determined
